Columns and labels:
RAJI cells = experiment: JNG assay, co-culture with RAJI cells; type: cell-based; settings: JNG cells expressing construct, co-culture with Raji
Procedure, shortened: (§1)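 Jurkat NFAT-GFP (JNG) cells stably transduced with SARs by lentivirus, with drug selection where the construct carried a resistance gene, then co-cultured with target cells at E:T ~1:2 for ~4–18 h. % GFP-positive cells measured by FACS against parental JNG; +/- to 5+ correspond to ~5–50% GFP-positive.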

L363 cells = experiment: JNG assay, co-culture with L363 cells; type: cell-based; settings: co-culture with L363
Procedure, shortened: as §1

Molecule	NFAT-GFP ASSAY: Raji (RAJI cells)	NFAT-GFP ASSAY: L363 (L363 cells)
22076 (protein) MALPVTALLLPLALLLHAARPQLQLQESGPGLVKPSETLSLTCTVSGDSISSGDYYWGWIRQPPGKGLEWIGHIYYSGVTYYNPSLKSRVTISVDTSRNQFSLKLSSVTAADTAVYYCTREDSSNWRSRGQGTLVTVSSLESGGGGSFEQVQLVESGGGLVQPGGSLRLSCAASGFTFTNHAMSWVRQAPGKGLELVSSISGNGRTTYYADSVKGRFTISRDISKNTLDLQMNSLRAEDTAVYYCAKDGGETLVDSRGQGTLVTVSSTRASTKGPSVFPLAPSSKSTSGGTAALGCLVKDYFPEPVTVSWNSGALTSGVHTFPAVLQSSGLYSLSSVVTVPSSSLGTQTYICNVNHKPSNTKVDKRVEPKSCIPEDTFFPSPESSCDVKLVEKSFETDTNLNFQNLSVIGFRILLLKVAGFNLLMTLRLWSSRAKRSGSGVKQTLNFDLLKLAGDVESNPGPSRGHMTEYKPTVRLATRDDVPRAVRTLAAAFADYPATRHTVDPDRHIERVTELQELFLTRVGLDIGKVWVADDGAAVAVWTTPESVEAGAVFAEIGPRMAELSGSRLAAQQQMEGLLAPHRPKEPAWFLATVGVSPDHQGKGLGSAVVLPGVEAAERAGVPAFLETSAPRNLPFYERLGFTVTADVEVPEGPRTWCMTRKPGA	+/- (refer to approximately 5%, 10%, 20%, 30%, 40% and 50% GFP positive cells)	+ (refer to approximately 5%, 10%, 20%, 30%, 40% and 50% GFP positive cells)
22051 (protein) MALPVTALLLPLALLLHAARPQLQLQESGPGLVKPSETLSLTCTVSGDSISSGDYYWGWIRQPPGKGLEWIGHIYYSGVTYYNPSLKSRVTISVDTSRNQFSLKLSSVTAADTAVYYCTREDSSNWRSRGQGTLVTVSSLEDKTHTCPPCPAGRADCGFTSESYQQGVLSATILYEILLGKATLYAVLVSALVLMAMVKRKDSRGRAKRSGSGATNFSLLKQAGDVEENPGPTSMDWIWRILFLVGAATGAHSFEVQLLESGGGLIQPGGSLRLSCAASGFTFSSHAMTWVRQAPGKGLEWVSAISGSGDYTHYADSVKGRFTISRDNSKNTVYLQMNSLRAEDSAVYYCAKDEDGGSLLGHRGQGTLVTVSSTRDKTHTCPPCPAEVKTDSTDHVKPKETENTKQPSKSCHKPKAIVHTEKVNMMSLTVLGLRMLFAKTVAVNFLLTAKLFFL	+/- (refer to approximately 5%, 10%, 20%, 30%, 40% and 50% GFP positive cells)	+/- (refer to approximately 5%, 10%, 20%, 30%, 40% and 50% GFP positive cells)
22073 (protein) MALPVTALLLPLALLLHAARPQLQLQESGPGLVKPSETLSLTCTVSGDSISSGDYYWGWIRQPPGKGLEWIGHIYYSGVTYYNPSLKSRVTISVDTSRNQFSLKLSSVTAADTAVYYCTREDSSNWRSRGQGTLVTVSSLEGQPKANPTVTLFPPSSEELQANKATLVCLISDFYPGAVTVAWKADGSPVKAGVETTKPSKQSNNKYAASSYLSLTPEQWKSHRSYSCQVTHEGSTVEKTVAPTECSGRADCGFTSESYQQGVLSATILYEILLGKATLYAVLVSALVLMAMVKRKDSRGRAKRSGSGATNFSLLKQAGDVEENPGPTSMDWIWRILFLVGAATGAHSFEVQLLESGGGLIQPGGSLRLSCAASGFTFSSHAMTWVRQAPGKGLEWVSAISGSGDYTHYADSVKGRFTISRDNSKNTVYLQMNSLRAEDSAVYYCAKDEDGGSLLGHRGQGTLVTVSSTRIQNPDPAVYQLRDSKSSDKSVCLFTDFDSQTNVSQSKDSDVYITDKCVLDMRSMDFKSNSAVAWSNKSDFACANAFNNSIIPEDTFFPSPESSCDVKLVEKSFETDTNLNFQNLSVIGFRILLLKVAGFNLLMTLRLWSSRAKRSGSGVKQTLNFDLLKLAGDVESNPGPSRGHMTEYKPTVRLATRDDVPRAVRTLAAAFADYPATRHTVDPDRHIERVTELQELFLTRVGLDIGKVWVADDGAAVAVWTTPESVEAGAVFAEIGPRMAELSGSRLAAQQQMEGLLAPHRPKEPAWFLATVGVSPDHQGKGLGSAVVLPGVEAAERAGVPAFLETSAPRNLPFYERLGFTVTADVEVPEGPRTWCMTRKPGA	+/- (refer to approximately 5%, 10%, 20%, 30%, 40% and 50% GFP positive cells)	+/- (refer to approximately 5%, 10%, 20%, 30%, 40% and 50% GFP positive cells)
22087 (protein) MALPVTALLLPLALLLHAARPQVQLVESGGGLVQPGGSLRLSCAASGFTFTNHAMSWVRQAPGKGLELVSSISGNGRTTYYADSVKGRFTISRDISKNTLDLQMNSLRAEDTAVYYCAKDGGETLVDSRGQGTLVTVSSLEGSGGGGSGGGGSGEDLKNVFPPEVAVFEPSEAEISHTQKATLVCLATGFYPDHVELSWWVNGKEVHSGVCTDPQPLKEQPALNDSRYCLSSRLRVSATFWQNPRNHFRCQVQFYGLSENDEWTQDRAKPVTQIVSAEAWGRADCGFTSESYQQGVLSATILYEILLGKATLYAVLVSALVLMAMVKRKDSRGRAKRSGSGATNFSLLKQAGDVEENPGPTSMDWIWRILFLVGAATGAHSFEEVQLLESGGGLVQPGGSLRLSCAASGFTFSSYAMSWVRQAPGKGLEWVSSISGSGDYIYYADSVKGRFTISRDISKNTLYLQMNSLRAEDTAVYYCAKEGTGANSSLADYRGQGTLVTVSSTRGSIPEDTFFPSPESSCDVKLVEKSFETDTNLNFQNLSVIGFRILLLKVAGFNLLMTLRLWSS	+ (refer to approximately 5%, 10%, 20%, 30%, 40% and 50% GFP positive cells)	2+ (refer to approximately 5%, 10%, 20%, 30%, 40% and 50% GFP positive cells)
22089 (protein) MALPVTALLLPLALLLHAARPQLQLQESGPGLVKPSETLSLTCTVSGDSISSGDYYWGWIRQPPGKGLEWIGHIYYSGVTYYNPSLKSRVTISVDTSRNQFSLKLSSVTAADTAVYYCTREDSSNWRSRGQGTLVTVSSLEGSGRADCGFTSESYQQGVLSATILYEILLGKATLYAVLVSALVLMAMVKRKDSRGRAKRSGSGATNFSLLKQAGDVEENPGPTSMDWIWRILFLVGAATGAHSFEVQLLESGGGLIQPGGSLRLSCAASGFTFSSHAMTWVRQAPGKGLEWVSAISGSGDYTHYADSVKGRFTISRDNSKNTVYLQMNSLRAEDSAVYYCAKDEDGGSLLGHRGQGTLVTVSSTRIQNPDPAVYQLRDSKSSDKSVCLFTDFDSQTNVSQSKDSDVYITDKCVLDMRSMDFKSNSAVAWSNKSDFACANAFNNSIIPEDTFFPSPESSCDVKLVEKSFETDTNLNFQNLSVIGFRILLLKVAGFNLLMTLRLWSSRAKRSGSGVKQTLNFDLLKLAGDVESNPGPSRGHMTEYKPTVRLATRDDVPRAVRTLAAAFADYPATRHTVDPDRHIERVTELQELFLTRVGLDIGKVWVADDGAAVAVWTTPESVEAGAVFAEIGPRMAELSGSRLAAQQQMEGLLAPHRPKEPAWFLATVGVSPDHQGKGLGSAVVLPGVEAAERAGVPAFLETSAPRNLPFYERLGFTVTADVEVPEGPRTWCMTRKPGA	+ (refer to approximately 5%, 10%, 20%, 30%, 40% and 50% GFP positive cells)	2+ (refer to approximately 5%, 10%, 20%, 30%, 40% and 50% GFP positive cells)
22052 (protein) MALPVTALLLPLALLLHAARPQLQLQESGPGLVKPSETLSLTCTVSGDSISSGDYYWGWIRQPPGKGLEWIGHIYYSGVTYYNPSLKSRVTISVDTSRNQFSLKLSSVTAADTAVYYCTREDSSNWRSRGQGTLVTVSSLEDKTHTCPPCPAEVKTDSTDHVKPKETENTKQPSKSCHKPKAIVHTEKVNMMSLTVLGLRMLFAKTVAVNFLLTAKLFFLRAKRSGSGVKQTLNFDLLKLAGDVESNPGPTSMDWIWRILFLVGAATGAHSFEVQLLESGGGLIQPGGSLRLSCAASGFTFSSHAMTWVRQAPGKGLEWVSAISGSGDYTHYADSVKGRFTISRDNSKNTVYLQMNSLRAEDSAVYYCAKDEDGGSLLGHRGQGTLVTVSSTRDKTHTCPPCPAIPEDTFFPSPESSCDVKLVEKSFETDTNLNFQNLSVIGFRILLLKVAGFNLLMTLRLWSSRAKRSGSGVKQTLNFDLLKLAGDVESNPGPSRGHMTEYKPTVRLATRDDVPRAVRTLAAAFADYPATRHTVDPDRHIERVTELQELFLTRVGLDIGKVWVADDGAAVAVWTTPESVEAGAVFAEIGPRMAELSGSRLAAQQQMEGLLAPHRPKEPAWFLATVGVSPDHQGKGLGSAVVLPGVEAAERAGVPAFLETSAPRNLPFYERLGFTVTADVEVPEGPRTWCMTRKPGA	+/- (refer to approximately 5%, 10%, 20%, 30%, 40% and 50% GFP positive cells)	+/- (refer to approximately 5%, 10%, 20%, 30%, 40% and 50% GFP positive cells)
22078 (protein) MALPVTALLLPLALLLHAARPQLQLQESGPGLVKPSETLSLTCTVSGDSISSGDYYWGWIRQPPGKGLEWIGHIYYSGVTYYNPSLKSRVTISVDTSRNQFSLKLSSVTAADTAVYYCTREDSSNWRSRGQGTLVTVSSLESGGGGSFEEVQLLESGGGLVQPGGSLRLSCAASGFTFSSYAMSWVRQAPGKGLEWVSSISGSGDYIYYADSVKGRFTISRDISKNTLYLQMNSLRAEDTAVYYCAKEGTGANSSLADYRGQGTLVTVSSTRASTKGPSVFPLAPSSKSTSGGTAALGCLVKDYFPEPVTVSWNSGALTSGVHTFPAVLQSSGLYSLSSVVTVPSSSLGTQTYICNVNHKPSNTKVDKRVEPKSCEVKTDSTDHVKPKETENTKQPSKSCHKPKAIVHTEKVNMMSLTVLGLRMLFAKTVAVNFLLTAKLFFLRAKRSGSGVKQTLNFDLLKLAGDVESNPGPSRGHMTEYKPTVRLATRDDVPRAVRTLAAAFADYPATRHTVDPDRHIERVTELQELFLTRVGLDIGKVWVADDGAAVAVWTTPESVEAGAVFAEIGPRMAELSGSRLAAQQQMEGLLAPHRPKEPAWFLATVGVSPDHQGKGLGSAVVLPGVEAAERAGVPAFLETSAPRNLPFYERLGFTVTADVEVPEGPRTWCMTRKPGA	+/- (refer to approximately 5%, 10%, 20%, 30%, 40% and 50% GFP positive cells)	+/- (refer to approximately 5%, 10%, 20%, 30%, 40% and 50% GFP positive cells)
